Measurements published in PMC6508891.

Key:
[1] = target: recombinant human VWF A1 domain with His tag (human); assay: SPR; BIAcore 3000; VWF A1A2A3 or single A domain amine-coupled to CM5; C3 or C4 perfused at 0-2.0 μM; 10 mM HEPES, 150 mM NaCl, 0.005% Tween-20, pH 7.4, 25°C, 10 µL/min; 1:1 Langmuir and shift baseline models
[2] = target: recombinant human VWF A1A2A3 triple domain with His tag (human); assay: as above
[3] = target: recombinant human VWF A3 domain with His tag (human); assay: as above
[4] = target: purified human complement component C4 (human); assay: SPR; BIAcore 3000; C3 or C4 amine-coupled to CM5; VWF A1A2A3 or single A domain perfused at 0-2.0 μM; 10 mM HEPES, 150 mM NaCl, 0.005% Tween-20, pH 7.4, 25°C, 10 µL/min; 1:1 Langmuir and shift baseline models
[5] = target: purified human complement component C3 (human) (UniProt P01024); assay: as above

Substance | Kd [1] [nM] | Kd [2] [nM] | Kd [3] [nM] | Kd [4] [nM] | Kd [5] [nM]
purified human complement component C3 (from UniProt P01024 23-667; P01024 672-1663) (natural protein) | 252 | 661 | 137 | – | –
recombinant human VWF A1 domain with His tag (domain or fragment) | – | – | – | 504 | > 2000
recombinant human VWF A3 domain with His tag (domain or fragment) | – | – | – | > 2000 | 100
recombinant human VWF A1A2A3 triple domain with His tag (domain or fragment) | – | – | – | 523 | 232
purified human complement component C4 (natural protein) | 139 | > 2000 | > 2000 | – | –
